Data as given in US20090297535A1 (Ablynx, published 2009).
Like-named read-outs stand apart in the source and are kept apart here.

Assays:
recombinant human IL6 [1] = molecular target: T1, recombinant human IL6 (human, UniProt P05231 30-212); test: SPR, Biacore 3000; IL6 amine-coupled on CM5 chip, periplasmic extract injected
T1 construct: Amine-coupled to a CM5 chip in the Biacore assay; used biotinylated in the Alphascreen assays; also called interleukin-6; biotinylated human IL6
Description: Off-rate analysis of Nanobodies binding to IL6 was done by surface plasmon resonance on a Biacore 3000 instrument. Recombinant human IL6 was covalently bound to a CM5 sensor chip via amine coupling at a density of ˜500 RU. Remaining reactive groups were inactivated. Periplasmic extracts prepared from E. coli cells expressing anti-IL6 Nanobodies were diluted 10 or 15-fold and injected for 4 min to allow for binding to IL6 immobilized on the chip. Buffer without Nanobody was sent over the chip for 30 min to allow for spontaneous dissociation of bound Nanobody. The dissociation phase was used to calculate the koff values for each individual Nanobody (table B-1).

recombinant human IL6 [2] = molecular target: T1, recombinant human IL6; test: cell-based or functional assay
recombinant human IL6 [3] = molecular target: T1, recombinant human IL6; test: cell-based or functional assay; remark: listed apart in the source
recombinant human IL6 [4] = molecular target: T1, recombinant human IL6; test: Alphascreen competition: Nanobody titrated against 3 nM biotinylated human IL6; blocked partner IL6R (1 nM) captured on acceptor beads coated with anti-IL6R MAb BN-12; streptavidin donor beads; readout cps
Description: Purified samples of Nanobodies PMP6B6, PMP7G5, PMP7G9 and PMP7G4 were analyzed in Alphascreen for their ability to inhibit the interaction between IL6 and IL6R. In this assay, various concentrations of anti-IL6 Nanobodies ranging from 1 uM to 10 pM were incubated with 3 nM biotinylated human IL6 for 15 min in a 384-wells plate. Subsequently a mixture of IL6R (1 nM) and acceptor beads (20 ug/ml) coated with anti-IL6R MAb BN-12 (Diaclone) were added and incubated for 30 min. Finally, streptavidin coated donor beads (20 ug/ml) were added. After 1 hour of incubation plates were read on the Envison Alphascreen reader (PerkinElmer). All experiments were performed in duplicate.

B1: PMP6B12 (VHH)
VHH: AVQLVESGGGLVQPGGSLRLSCAASGFTLAYYAIGWFRQAPGKEREGVSCISSSVGTTYYSDSVKGRFTISRDNAKNTVYLQMNSLKPEDTAVYYCVRSSWFDCGVQGRDLGNEYDYRGQGTQVTVSS
notes: Monovalent Nanobody
koff (recombinant human IL6 [1]): 0.00027 s⁻¹ | IC50, inhibition of proliferation of the murine hybridoma cell line B9 (B9 assay, cell proliferation normalized) (recombinant human IL6 [2]): 0.028 nM

B2: PMP13F12 (VHH)
VHH: AVQLVDSGGGLVQAGGSLRLSCAASGRTFSSSPMGWFRQAPGKEREFVAAISGRSGNTYYADSVKGRFTISRDNAKNTVYLQMNSLKPEDTAVYYCAAERVGLLLTVVAEGYDYWGQGTQVTVSS
notes: Monovalent Nanobody
IC50, inhibition of proliferation of the murine hybridoma cell line B9 (B9 assay, cell proliferation normalized) (recombinant human IL6 [3]): 0.008 nM | koff (recombinant human IL6 [1]): 3.66e-05 s⁻¹

B3: PMP7G4 (VHH)
VHH: AVQLVESGGGLVQPGGSLRLSCAASGSIFSRLAMDWYRQAPGKQRELVASISRSGTTMAADSVKGRFTISRDNAENMVYLQMNSLKPEDTAVYVCMAFDGYSGSDYWGRGTQVTVSS
notes: Monovalent Nanobody
koff (recombinant human IL6 [1]): 0.00208 s⁻¹ | IC50, inhibition of proliferation of the murine hybridoma cell line B9 (B9 assay, cell proliferation normalized) (recombinant human IL6 [2]): 0.421 nM | IC50 (recombinant human IL6 [4]): 2.5 nM

B4: PMP7G9 (VHH)
VHH: QVQLVESGGGLVQPGGSLRLSCAASGFSLDYYGVGWFRQAPGKEREGVSCISSSDGDTYYADSVKGRFTISRDNAKNTVYLQMNSLKPEDTAVYYCATDLSDYGVCSRWPSPYDYWGQGTQVTVSS
notes: Monovalent Nanobody
koff (recombinant human IL6 [1]): 0.00287 s⁻¹ | IC50, inhibition of proliferation of the murine hybridoma cell line B9 (B9 assay, cell proliferation normalized) (recombinant human IL6 [2]): 0.385 nM | IC50 (recombinant human IL6 [4]): 3.4 nM

B5: PMP21H1 (VHH)
VHH: QVQLVESGGGLVQTGGSLRLSCAASGSTFSKHHATGWFRQAPGKEREFVAALNWSGGNTYYTDSVKGRFTISRDNAQNTVYLQMNSLKPEDTAVYYCAAGSYVFYFTVRDQYDYWGQGTQVTVSS
notes: Monovalent Nanobody
IC50, inhibition of proliferation of the murine hybridoma cell line B9 (B9 assay, cell proliferation normalized) (recombinant human IL6 [3]): 2.58 nM | koff (recombinant human IL6 [1]): 0.00124 s⁻¹

B6: PMP6B6 (VHH)
VHH: QVQLVESAGGLVQPGGSLRLSCAASGIIFSINAMGWYRQAPGKRRELVADIMPYGSTEYADSVKGRFTISRDNAKNTVYLQMNSLKPEDTAVYYCHSYDPRGDDYWGQGTQVTVSS
notes: Monovalent Nanobody
koff (recombinant human IL6 [1]): 0.000433 s⁻¹ | IC50, inhibition of proliferation of the murine hybridoma cell line B9 (B9 assay, cell proliferation normalized) (recombinant human IL6 [2]): 0.003 nM | IC50 (recombinant human IL6 [4]): 2 nM

B7: PMP7G5 (VHH)
VHH: QVKLEESGGGLVQPGGSLRLSCAASGSISRFNIMGWYRQAPGKQRELVADITNGGTTMYADSVKGRFTISRDNTKNTVYLQMNSLKPEDTAVYYCHTYYPTTGFDDWGQGAQVTVSS
notes: Monovalent Nanobody
koff (recombinant human IL6 [1]): 0.000412 s⁻¹ | IC50, inhibition of proliferation of the murine hybridoma cell line B9 (B9 assay, cell proliferation normalized) (recombinant human IL6 [2]): 0.017 nM | IC50 (recombinant human IL6 [4]): 6.1 nM

B8: PMP6E10 (VHH)
VHH: QVKLEESGGGLVQAGGSLRLSCVVSGRTFSPYTIAWFRQAPGKEREFVTTIIGSDRSTDLDGDTYYADSVRGRFTISRNDAKNTVFLQMSSLKPEDTAVYYCALTGKGYVFTPNEYDYWGQGTQVTVSS
notes: Monovalent Nanobody
koff (recombinant human IL6 [1]): 0.000545 s⁻¹ | IC50, inhibition of proliferation of the murine hybridoma cell line B9 (B9 assay, cell proliferation normalized) (recombinant human IL6 [2]): 1.07 nM
